Measured values published in article PMC5071372, “Combining biophysical methods to analyze the disulfide bond in SH2 domain of C-terminal Src kinase” (Biophysics Reports, 2016).
Square brackets hold non-standard residues; d marks the D form. Ends that are not written are not given here. pY = N[C@@H](Cc1ccc(OP(=O)(O)O)cc1)C(=O)O

Experiments:
[1] = biological target: T1, Csk L-SH2 domain (A73–A178), reduced form (human, UniProt P41240 73-178); test: other fluorescence titration; intrinsic tryptophan fluorescence of L-SH2 (typically 5 μmol/L) titrated with Cbp peptide; 25 °C, 3 mL of 50 mmol/L Tris-HCl pH 7.5; excitation 288 nm, emission 320 nm; details: both partners purified
T1 construct: C-terminal Src kinase (Csk), human, SH2 domain with part of the SH3-SH2 linker, residues A73-A178; C122 and C164 as free thiols; Cloned into pTWIN1 as described in Liu et al. 2009; 15N/13C-labelled for the NMR experiments; PDB 3EAC is the oxidized form of the same construct; also called reduced SH2; reduced L-SH2; source: E. coli BL21 (DE3) RIL, purified (chitin beads, intein cleaved with 50 …)
T1 sequence (looked up): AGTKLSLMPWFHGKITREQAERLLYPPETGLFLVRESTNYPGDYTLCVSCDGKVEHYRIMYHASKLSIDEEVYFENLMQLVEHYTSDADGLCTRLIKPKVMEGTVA

[2] = biological target: T2, Csk L-SH2 domain (A73–A178), oxidized form (human, UniProt P41240 73-178, disulfide bond C122–C164); test: as above; details: both partners purified
T2 construct: C-terminal Src kinase (Csk), human, SH2 domain with part of the SH3-SH2 linker, residues A73-A178; intramolecular disulfide bond between C122 and C164; Same polypeptide as m1, differing only in the C122–C164 disulfide bond; also called oxidized SH2; oxidized L-SH2; source: E. coli BL21 (DE3) RIL, purified (chitin beads, intein cleaved with DTT, Mono Q); oxidized by exposure to air for about a …
T2 sequence (looked up): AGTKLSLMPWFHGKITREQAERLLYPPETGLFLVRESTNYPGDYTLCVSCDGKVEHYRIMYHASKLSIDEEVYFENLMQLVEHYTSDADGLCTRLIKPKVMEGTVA

B1: Cbp phosphopeptide ISAMpYSSVNK (peptide)
peptide: ISAM[pY]SSVNK
notes: also called Cbp peptide; Cbp-phosphorylated peptide; source: synthetic peptide (GenScript, solid-phase synthesis)
What does the source list for B1?
Kd [1]: 520 ± 50 nM; Kd [2]: 990 ± 80 nM
